{
  "source": "the DeepSol protein solubility set",
  "data": [
    {"experiment": "soluble on expression in E. coli; label from the status in PepcDB or PDB records", "values": [
      {"sequence": "MITPSRYPGIYIAPLSSEPTAAHTFKEQAEKALDHISAGPSGRELLQEISKLASKKDRKVTLKEIEINNQCYTDAVLSRRQLEKYEPEDFNENRRIASRLSRKGTFTKGEGSNAIIGWSPDKASIRLNQNGSPLRLGMDNDDKITTLAHELVHVRHVLSGSSLADDGDRYNPRTGSGKEELRAVGLDKYSYSLTKEPSENSIRAEHGLPLRMKYRPHQ", "soluble on expression in E. coli": "not soluble"},
      {"sequence": "MITPVSSFSIDDLLRGHSNEIQRILKLDQTSPTPQSSSDEGSEKSSISVMSVPLTNELTPTITPALSDQLWLAAAAFPIEHSLLLAQRNGVFPGFWSTADQIRLSNATKAYRRLRLECSRRKARTVFSDQQLQGLERRFESQRYLSTPERIELANALNLSETQVKTWFQNRRMKHKKVVRKDDNSVDDDNGNDNESE", "soluble on expression in E. coli": "not soluble"},
      {"sequence": "MITTPNISLTPTVAPPVDFPIIGNCDFQAQLWHLMSLHLQMQKSSAASTSSSSSSSTSSENLKKSPSSVQNTSVFSIDNILNSQKVPKLELENDEDVSSSPSPTCSTTGYTLDSLQNLDRRSLNKKGPSSHNRCVCDKCGKSYATTSNLSRHKQTHRALDSPHAKQCPHCDRVYVSMPALSMHILTHNASHECNVCGKRFSRLWLLQGHLRSHTGLRPFSCAHCGKSFADRSNLRAHMLTHTGDKRFECDKCGRRFALRAYLNRHLETCK", "soluble on expression in E. coli": "not soluble"},
      {"sequence": "MIVMPKRLSDEIASRVRALIEEQNLEAGMKLPAERQLALQLGVSRNSLREALAKLVSEGVLVSRRGGGTFVRWQHETWSEQNIVQPLKMLMANDPDYSFDILEARHAIEASTAWHAAMRATAADKEKIRLCFDATLSEDPDLASQADVRFHLAIAEASHNVVLLQTMRGFFDVLQSSVKQSRQRMYLVPPVFSKLTEQHQAVMDAILDGNAEGARKAMMAHLSFVHTTIKRFDEDQARQARITRLPGDHNEMTRENKS", "soluble on expression in E. coli": "not soluble"},
      {"sequence": "MIVNDSVVIHASRDIAADAAGNISVTTADLKVSVMLRVADKPERATAQLVFRALSEVEAFKMRVADEVERLQHSFEQDFETRHRELDQEVARAAEDTIAHRLLERREYVNLRAIERNDDNIILRVTGGVWVGTELYLLFEIQNRDSTPYHLDRVRVVGAGEERAGAVAFEDRTYPEGGSMGSIASGQRGRGIVAVRNARQLAGQPVRLIVSEARERRAVSVGDIRWR", "soluble on expression in E. coli": "not soluble"},
      {"sequence": "MIWRLIMLIDRFGRPVTNLRISLTKECNLSCFYCHREGQLDGERFMTPEEIERIVRVASRLGIKKVKLTGGEPTIRKDILEIIRRLKPYVVDLSLTTNGTTMYVLAEKLKEAGLDRVNISLDTLDRKKYKMITGFNVLDEVIKGIKKATKLFYPVKLNMVVMKGVNDDEIWDMMRFAGEVNAILQLIELEVPREMENSQFFKDFFYPLKPLEEKFEKLAVKVKERRMHRRRKYFIPIDGKIVEVEVVRSMHNTVFCMNCTRLRLTADGYLKTCLLRRDDLIDILGPLRNGASDADLIEIFKRAVLLRRPYWTSNSSLEHHHHHH", "soluble on expression in E. coli": "soluble"},
      {"sequence": "MIYIIQGGRAGNQLFSYAFAQRIRQIYGNEEICFVLSAIKNKAMDDCNGAYWEDSLKYFDVQDYSVSFEDNIVTKEGNLFQRFLYQFWRGSRKLNNIIFSLTGVEFSKFSLLLNRVVFNLISRFGLYIITHGFSESIKKTSFKNKFIYGSFEDNRWFSDIESKLRLEFKPKYNLNEKALQLYNELLNQNAICVSLRKWSIDVHDDSELEKREICDRNYYEKAINHIINTVEKPIFVVFSDDLEWASELMRSIIKDRYPLLVEKGDNNVAEKLFLMSTCKHFIIANSTFSWWAAYLGEFSDKIVVSPNIWFKSNKQFHPLILDDWIKINCQLEHHHHHH", "soluble on expression in E. coli": "not soluble"},
      {"sequence": "MIYINLYNSNQMTKGILIAGTHSGVGKTTVSMGIMAALKHRQLKVQPYKVGPDYIDPSHHTAICGRPSRNLDTYLMGTEGVRQTVARTSADADIAVVEGVMGLFDGIDSTEVASSAHVAKTLDIPVILVINVHGMSRSAAALLKGYSEFDPEVRVAGVILNQVGSPRHAELVKNSLPGNIPIIGTIPRRKDIEVPSRHLGLYMAHEK", "soluble on expression in E. coli": "not soluble"},
      {"sequence": "MIYLRKLKKEDLMSLWEMAYSQLNPVWKQYDAPYYDDYQYFSNFKEFELQKSESILSNSNRLGIFVDDKLVGTVSRYWVCKETRWMELGIGIYDKKFWNTGIGKVAMLQWIDRTFQDYLELEHLGLTTWSGNIGMMKLAEKLRMKKEAHIPKVRYYQGKYFDSIKYGILREDWEKINDGYYQINGNS", "soluble on expression in E. coli": "not soluble"},
      {"sequence": "MIYPLPAILVSCGKDESEYNIITVAWTGTICTNPPMCYISVRPERHSYDIIKKNMEFVINLTTKDMAFPTDWCGVRSGRNYRKFEEMKLTPGRCTVVSAPLIEESPLCIECRVKEIVSLGSHDMFIADVVNVRADDRNLNPETGKFELAEANPLVYVHGGYYDLGEKIGKFGWSVEKKK", "soluble on expression in E. coli": "not soluble"},
      {"sequence": "MKAAEHDLLTIELAPRRRDELQIHNKKIAEVDHWLKNVFSESNKQLGVMYLTGPAGSGKSTTVEVMCTEQNIEIIEYSPEYLHNEDFECEKPDFTQLRRFLLRRHGSLRGGGLKKRLLLVTELPDQAYSDAEKFREDLSEVLQHIWHPVIFCLTNSIACWNLNPDRLFTKDFNIMNGIDTVTFNPVADSFMKKALVRASNCLSSPLSDAKLNVIGEEAGGDLRIAMNMLQMNSIGPNADRRSGNSVICASKANREEAFHMIGRILYAKRVNPNVPKPSRFSKRRRKSAPIPEPLVRTELEHDPTDIITMSSMTSEKLLDFLFQNEPIFCSNISKYRYVAETFSMCDFLTGDWTTRKSLPEDYVAQMATRSVMWNNYKEPRPGTLFAVGRPLRSSLEKHTARTKLELQRLPMIGAKDYAALTCPYITIIKDIIDPQRIEYFLSRPMDINWQWGNDKIEEHLEKQYALDYKGRKKHRLPLHKAPKPSGKIIEVVDLEEEEEKFTIEESSDDSFEEF", "soluble on expression in E. coli": "not soluble"},
      {"sequence": "MKAAVVEQFKEPLKIKEVEKPTISYGEVLVRIKACGVCHTDLHAAHGDWPVKPKLPLIPGHEGVGIVEEVGPGVTHLKVGDRVGIPWLYSACGHCDYCLSGQETLCEHQKNAGYSVDGGYAEYCRAAADYVVKIPDNLSFEEAAPIFCAGVTTYKALKVTGAKPGEWVAIYGIGGLGHVAVQYAKAMGLNVVAVDIGDEKLELAKELGADLVVNPLKEDAAKFMKEKVGGVHAAVVTAVSKPAFQSAYNSIRRGGACVLVGLPPEEMPIPIFDTVLNGIKIIGSIVGTRKDLQEALQFAAEGKVKTIIEVQPLEKINEVFDRMLKGQINGRVVLTLEDK", "soluble on expression in E. coli": "soluble"},
      {"sequence": "MKAFDQVNHSLLLHKLHDFGINPLFCNWFHDFLSSRTFSVKVNNHIDPNIHPIPSGVPQGSVSGPFLFLIFINSLLLSLPPTISCSAFADDLKVYSHSPPLIQTTIDLITAWSENNKLPLAHSKTCLLHLGKKNPKTVYKINNLPISPSNVARDLGILTDSKLTFKTHIKKIVFLALLRCKQLLKSFKSLCPEFCCNLFKTYILPLIEYGSAVYSPKPSSSLSTLLEKPLRWYSQKVLQKCNISYSSYNDRLKSLNLHSIRHRRLKSKLILLYKFCCGTSFLPQKETYFKLSTSSRRPMRIICHNPSSNNFFSDTISFWNAITNNCDTFLSPIHFENLVDNSITRL", "soluble on expression in E. coli": "not soluble"},
      {"sequence": "MKAIILAGGQSERFGEPKAFAQINAQPFYKRIIDVLEGTNMFNQIIISTNETLASQFDHSDIIIDEDQNKDKGPLAGIQSVIQHYESEELFFVVSVDTPMISQKAVSKLYQFMVEHLIEDQLDIAGFKEKGRPIPTIAFYSPHTLPYIDDALNSNDYSLKSVYNKVKSDWLDVNLIESPDYWYKNINYQQDLDSLQQDILNR", "soluble on expression in E. coli": "not soluble"},
      {"sequence": "MKAIPSNVWATRPTKPFTCFFCPMIVLTEDGSPTILSPHYGEYYHSIHGACRESEHVFVHTGLLHRLESFDPSGTLYLFEVGFGTALNALLTLREQRCRGLSIHYSAIEKFPLERDVYEHLRFSVGMADEDKLLQSLHHAPWGMDCEICPGFTLHKIASDLTDFTFRKPIDLIYFDAFSPEAQPELWSEEIFIRMVAACRSGAVLATYCAKGEIRRRLTRAGFHMERLPGPPGKREILRGTYYLEDRGDSL", "soluble on expression in E. coli": "not soluble"},
      {"sequence": "MKAMRYEQISENAFKGKIQVYLEQILGDASLILKTLHEKDQCLLCELDDLGHVFQDMQGIASSFYLQSYIEEFTPAFIELAKAIKALSEHKHGALIVIERADPVERFIQKGTSLHAEISSSLIESIFFPGNPLHDGALLVRENKLVSASNVLPLTTKEVDIHLGTRHLAALGMSGYTDALVLVVSEETGKMSFAKDGVLYPLISPRT", "soluble on expression in E. coli": "not soluble"},
      {"sequence": "MKAQVEYIILPFKKRLDGFTYWQRELEPAIHPALKAYVKAENATGGVSSVMIFWEIARNTDHFCSDFKTDRDVRMFLTLYFWKYLCYFANIDFYTGQDKTEEILKGEAD", "soluble on expression in E. coli": "not soluble"},
      {"sequence": "MKCIAIDDEPLALKQLTDYISRVPFLSLVKSCQDAFEAMKVLADEEIDLIFVDINMPDLNGLDFIRSLISRPMVVFTTAYSEYAVDGFKLDAVDYLLKPFEFQDLLKAADKARKQYEYRMLEQQGELGNSSQIKGDSLFVKSDYKVVRIDVKNIRYIEGMSEYVRIFIEGEDKPVITLASLQKMEERLPTYFMRVHRSYIVNLRKITEVSRLRIIFDRNTYIPVGDNYKERFAEHISKLSFS", "soluble on expression in E. coli": "not soluble"},
      {"sequence": "MKDDIKRRIDLAAGRKRSQLVLKNAQILNVFSHEIISGDIAIDQGKIVGIGNYNGLENIDLEGKVVVPGLIDGHVHMESAMVTPGQFARAIVPRGTTTIVADPHEIANVCGIPGIEYMLKASEGMPLNVYMMLPSCVPATSFENAGANLKAKDLAPLINHEKVLGLGELMDYPGVIAGEESIIDKIMIAEGKMIDGHGPDIKEEALNAYVAAGVRTEHECSTVEEMINRLRLGMYILIREGSAARNLKTLVRGITPENMRRCLFCTDDKHPEDILEAGHIDHNVRVAIKEGLDPISAVKMATINAAECYGLKDLGAIAPGYRADLVVLDNLETFHVTKVFKDGKLVAQDGKAFFEAQSTEDHTVTQTVNAKELTPEDLVLSLETDIVNVIKLLPHSLVTQRVSRKVEVKEGTFRYHEDLDILKLAVIERHKRTGNIGLGLVEDFRLKGGAIASTVAHDSHNIIVIGDNDEDMLLAVNELNTVGGGITICSKGEILQTLSLPIAGLMAQGTMEEVNEQLKQMLEIAYKKLGINEQIDPFMTLSFLALPVIPELKLTDLGLFDVKNFRFISLNR", "soluble on expression in E. coli": "not soluble"},
      {"sequence": "MKDLGAEHLAGHEGVQLLGLLNVYLEQEERFQPREKGLSLIEATPENDNTLCPGLRNAKVEDLRSLANFFGSCTETFVLAVNILDRFLALMKVKPKHLSCIGVCSFLLAARIVEEDCNIPSTHDVIRISQCKCTASDIKRMEKIISEKLHYELEATTALNFLHLYHTIILCHTSERKEILSLDKLEAQLKACNCRLIFSKAKPSVLALCLLNLEVETLKSVELLEILLLVKKHSKINDTEFFYWRELVSKCLAEYSSPECCKPDLKKLVWIVSRRTAQNLHNSYYSVPELPTIPEGGCFDESESEDSCEDMSCGEESLSSSPPSDQECTFFFNFKVAQTLCFPSLEHHHHHH", "soluble on expression in E. coli": "not soluble"},
      {"sequence": "MKDLIELFWLRYTELQSAVGKNESDKIAVLERELELLLERIVGRKTESSEDIREQFRFAIDLLNHEAEDLGCVQRNSELLRTLVDRYVGMPLKAKVVGDEDEDTLAWHHRHLILDEDMLNDLDEPVVIVSPGYRVSFANALDAFQRNAPEGLIGCHIAELVGVHRFQNILREKLDNCFKGDTSKYTYAEDENGRTVVKSLEMSPCYSSAYKLVGAMVVIREIADRRRRAAG", "soluble on expression in E. coli": "not soluble"}
    ]}
  ]
}
